Legend:
[1] = molecular target: recombinant human LTBP-2 central fragment LTBP-2C(H) (human); experiment: ELISA; solid phase binding assay, saturation curve: LTBP-2 or fragment coated on wells, increasing FGF-2 (0–30 ng/ml; 0–1.8 or 0–1.5 nM), 3 h at 37°C; BSA signal subtracted, bound FGF-2 from a standard ELISA curve; Kd by non-linear regression (GraphPad Prism) for a single binding site (Fig 3, Fig 4B, D, E)
[2] = molecular target: LTBP-2 C(H) F2, sub-fragment of human LTBP-2C(H) (six tandem EGF-like motifs, EGFs 9-14) (human); experiment: as above

recombinant human fibroblast growth factor-2 (FGF-2) (from UniProt P09038 143-288) (ligand)
Kd [1]: 1.02 nM
Kd [2]: 1.03 nM

Reference: PMC4532469
